# According to PMC5873253:
# Target: OsMADS57 (Oryza sativa) (UniProt Q6Z6W2)
# Test: SPR
# Settings: SPR (Biacore 3000, SA chip): 10 mM Hepes pH 7.9, 50 mM KCl, 1 mM EDTA, 0.5 mM DTT, 5 mM MgCl2, 10% glycerol, 0.005% P20, 25 or 4 C, protein 0.15-4.80 uM, EMSA: …
# Chain of OsMADS57 (Oryza sativa) (Q6Z6W2 whole entry): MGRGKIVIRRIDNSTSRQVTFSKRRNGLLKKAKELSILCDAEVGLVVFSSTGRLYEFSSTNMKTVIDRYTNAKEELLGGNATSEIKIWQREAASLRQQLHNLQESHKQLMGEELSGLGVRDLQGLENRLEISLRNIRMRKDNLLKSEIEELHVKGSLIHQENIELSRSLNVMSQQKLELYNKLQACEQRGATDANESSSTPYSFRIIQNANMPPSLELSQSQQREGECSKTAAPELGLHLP
sequence,measurement,setting,value
TTAACTTTAAAAAGTTAGTTAACTTTAAAAAGTTAGTTAACTTTAAAAAGTTAG (double strand) [WRKY94S2],Kd,25 C,1200 nM
same,Kd,,700 nM
